Experimental data from the nanobody polyreactivity screen of Harvey et al. (2022).

Test: yeast display, Sf9 membrane polyspecificity reagent, FACS + sequencing; frameworks hold sequencing errors
Method in brief: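 Polyreactivity labels are assigned by the sorting gate from which each nanobody was recovered. The gates were low and high (top ~1%), set on anti-HA fluorescence for expression and streptavidin fluorescence for reagent binding. Before sorting, galactose-induced (36–48 hours) yeast display cells were stained for 1 hour at 4 °C with 10% biotinylated, detergent-solubilized Sf9 membrane reagent.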

Sequence	polyreactivity (PSR sort gate)
QVQLVESGGGLVQAGGSLRLSCAASGRNFSDYAMGWSRQAPGKERELVATITSGDSTNYADSVKGRFTISRDNAKNTVYLQMNSLKPEDTAVYYCNADRFADYDYWGQGTQVTVSS	low polyreactivity
QVQLVESGGGLVQAGGSLRLSCAASGRTLRKYAMGWYRQAPGKERELVAAITTSGGSTYYADSVKGRFTISRDNAKNTVYLQMNSLKPDDTAVYYCNAARYYAYIGDYWGQGTQVTVSS	high polyreactivity
QVQLVESGGCLVQAGGSLRLSCAASGFTFTKYAMGWYRQAPGQERELVAAINRSGRTYYADSVKGRFTISRDNAKNTVYLQMNSLKPEDTAVYYCAADTRYQYSAYDYWGQGTQVTVSS	high polyreactivity
QVQLVESGGGLVQAGGSLRLSCAASVRTFNFYASGLYRQATRKQRELVAAIRRGGSTNYADSVKGRFTISRDNAKNTVYLQMNSLIREDTAVYYCNKRVWYPYWTVDYWGQGTQVTVSS	low polyreactivity
QVQLVESGGGLVQAGGSLRLSCAASGNTFDGYDMGWYRQAPGKERELVAAITNTGASTYYADSVKGRFTISRDNAKNTVYLQMNSLKPEDTAVYYCIAQDSYPEDRHGMSYWGQGTQVTVSS	low polyreactivity
QVQLVESGGGLVQAGGSLRLSCAASGFTFGRYAMGWYRQAPGKERELVAAISRGGSTYYADSVKGRFTISRDNAKNTVYLQMNSLKPEDTAVYYCNKGDSKEYDVYYWGQGTQVTVSS	low polyreactivity
QVQLVESGGGLVQAGGSLRLSCAASGSTFYRNVMGWYRQAPGKERELVAAISASGGSTYYADSVKGRFTISRDNAKNTVYLQMNSLKPEVTAVYYCAVDNRQYRYLYYYWGQGSQVTVSS	high polyreactivity
QVQLVESGGGLVQAGGSLRLSCAASGFTISPYAMGWYRQAPGKERELVAVISKSSTRTYYADSVKGRFTISRDTAKNTVYLQMNSLKPEDTAVYYCNAGWNFVSGYYYWGQGTQVTVSS	high polyreactivity
QVQLEESGGGLVQAGGSLLLSCAASGLIFYHNAMGWYIQAPGKERELVAAITASGGSTYYADSVKGRFTISRDNANNTVYLQIISLKTEDTAVYYCAADGPLDSDLDYWRQGTQVTVSS	low polyreactivity
QVQLVESGGGLVQAGGSLRLSCAASGLTIQRNDMGWYRQAPGKEREFVATITSNAGSTYYADSVKGRFTISRDNAKNTVYLQMNSLKPEDTAVYYCARERWWGGSDYWGQGTQVTVSS	high polyreactivity
QVQLVESGGGLVQAGGSLRLSCAASGFYAMGWYIQAPGKERELVAAIRYRGGSTYYADSVKGRFTFSRDNAKNTVDLQMNSLKPEDTAVYYCAASTGPDRQFDSWGQGTQVTVSS	low polyreactivity
QVQLVESGGGLVQAGGSLRLSCAASGSIFFKNVMGWYRQAPGKERELVAAITWSGGSTYYADSVKGRFTISRDNAKNTVYLQMNSLKPEDTAVYYCNARRSKGMYYWGQGTQVTVSS	high polyreactivity
QVQLVESGGGLVQAGGSLRLSSAAAGSTFGRYAMGWYRQAPGKEREFVAAITQGGTNTYYADSVKGRFTISRDNAKNTVYLQMNSLKPEDTAVYYCARVRRYPLRYNYWGQGTQVTVSS	high polyreactivity
QVQLVESGGGLVQAGGSLRLICAASGGIFNYYAMGWYREAPGKERELVAAISASGGSTYYADSVKGRFTISRDNAKNTVYLQMNSLKPEDTAVYYCAAGLPYGYGYDYWGQGTQVTVSS	low polyreactivity
QVQIGESGGGLVQAGGSLRLSCAASGSIIVGYAMGWYRQAPGKEREVVAAISKRGTSTYYADSVKGRFTISRDNAKNTVYLQMNSLKPEETAVYDCNALDLVNHGWTERLDQDYYYWGQGTQVTVSS	high polyreactivity
QVQLVESGGGLVQAGGSLRLSCAASGRTFVQNAMGWYRQAPGKERELVAAITWSTSGTYYADSVKGRFTISRDNAKNTVYLQMNSLKPEDTAVYYCAKYLAAYTGGGGYWGQGTQVTVSS	low polyreactivity
QVQLVESGGGLVQAGGSLRLSCAASGSIFWYNAMGWYRQAPGKERELVAAIRWRGGSTYYADSVKGRFTISRDNAKNTVYVQMSSLKPEDTAVYYCAAQVYVSQLYTSYYYWGQGTQVTVSS	high polyreactivity
QVQLVESGGGLVQAGGSLRLSCAASGFIFRSNAMGWYRQAPWKEREFVAAITYSSGSTYYRNSVKGRFTISRDNAKNTVYLQMNSLKPEDTAVYYCATPVTNGFDYWGQGTQVTVSS	high polyreactivity
QVQLVESGGGLVKAGGSLRLSCAASGSIFKSNAMGWYRQAPGKEWELVAAISDSGGSTYYADSVKGRFTISRDNAKNTVYLQMNSLKPEDTAVYYCNADWSWYNYYDFDYWGQGTQVTVSS	low polyreactivity
QVQRVESGGGLVQAGGSLRLSCAASGRNFTRYAMGWYRQAPGKERELVASISRRGGSTYYADSVKGRFTISRDNAKNTVYLQMNSLKPEDTAVYYCNALVIARNIEMDYWGQGTQVTVSS	high polyreactivity
QVQLVESGGGLVQAGGSLRLSCAASGLIFSVYAMGWYRQAPGKVRELVAAITGSGGRTYYADSVKGRFTISRDNAKNYVYLQMNSLKPEDTAVYYCAATVSSYPYYRYYSWGQGTQVTVSS	high polyreactivity
QVQLVESGGGLVQAGGSLRLSCAASGFIILINVMGGYRQAPGNERELVAVITGGGTTNYADSVKGRFTISRDNAKNTVYLQMYSLKPEDTAVYYCAADWIVVSEFGLDYHMDYWGQGSQVTVSS	low polyreactivity

Sequence	polyreactivity (PSR sort gate)
QVQLVESGGGLVQAGGSLRLSCAASGLIFGPNAMGWYRQSPGKERELVAAITKSGDSTYYADSVKGRFTISRDNAKNTVYLQMNSLKPEDTAVYYCAADTTTGLYDYWGQGTQVTVSS	low polyreactivity
QVQLVESGGGLVQAGGSLRLSCAASGSTFYRNAMGWYRQARGKERELVAAISRGGSTYYADSVKGRFTISRDNAKNTVYLQMNSLKPEDTAVYYCNTDVNYAGYGWYYYWGQGTQVTVSS	high polyreactivity
QVQLVESGGGLVQAGGSLGLTCAASGSIFYGYAMAWYRPAPGKERELVAAISSSGGNTYYADSVKGRFTISRDNAKNTVYLQMNSLKPEDTAVYYCNKVYYQVKYDYWGQGTQVSVSS	low polyreactivity
QVQLVESGGGLVQAGRSLPLSCAASGRTFRPNAMGWYRQAPGKERELVAVSSWRGGRTYYADSVKGRFTISRDNAKNTVYLQMNSLKPEDTAVYYCAAGPTSRRWYDYWGQGTQVTVSS	high polyreactivity
QVQLVESGGGLVQEGGSLRLSCAASGGIFFPNAMGWYRQAPGKERELVAAISWSAGSTYYADSVKGRFTISRDNAKNTVYLQMKSLKPEDTAVYYCAAAGSNYTVWFGYYYWGQVTQVTVSS	low polyreactivity
QVQLVESGGGLVQAGGSLRLSCAASGSTFAYYAMGWYRQAPGKERELVAAISASGSRTYYADSVKGRFTISRDNAKNTVYLQMNSLKPEDTAVYYCAALQYRRKIPTAYAGDYWGQGTQVTVSS	high polyreactivity
QVQLVESGGGLVQAGGSLRLSCAASGRTFGYYAMGWYRQAPGKERELFDAITGRTSRTYYADSVKGRFTISRDNAKNTVYLQMNSLKPEDTAVYYCAARYTRWRYNYKDYDYWGQGTQVTVSS	high polyreactivity
QVQLVESGGGLVQAGGSLRLSCAASGRIIGLYARGWYRQAPGKERELVAAITWRGGRTYYADSVKGRFTISRDNAKNTVYVQMNRLSPEDTAVYYCAADLSNSLDYWGQGSQVTVSS	high polyreactivity
HAQLQESGGGLVQAGGSLRRSCAASGSIFRFSRMGWYRRAPGKERELVASIGFGSITYYADRVKGRFTISRDNANNTVYLQMNSLKPEDTAVYYCAVQVQDESWLDYWGQGTQVTVSC	low polyreactivity
QVQLVESGGGLVQAGGSLRLSCAASGRIFFLYAMGWYRQAPGKERELVASITRRGGSTYYADSVKGRFTISRDNAKNTVYLQMNSLKPEDTAVYYCAAELYRSNVYHYDYWGQGTQVTVSS	high polyreactivity
QVHLVESGGGLVQAGGSLRLSCSASGSIFAINVMGWYRQAPGKEREFVAAITWSGGSTYYADSVKGRVTISRDNAKNTVYLQMFSLKPEDTAVYYCNARYPYKRRDYDYWGQGTQVTVSS	high polyreactivity
QVQLVESGGGLVQAGGSLRLSCAASGNTFAGNAMGWYRQAPGKERELVAAISRSGVTTRYADSVKGRFTISRDNAKNTVYLQMNSLKPEDTAVYYCNADPRLRQTRDYWGQGTQVTVSS	high polyreactivity
QVQLVESGGGLVQAGGSRSLSCAASGSIFLVNAMGWYRQAPGKERELVAAINSGGSTYYADSVKGRFTISRDNAKNTVYLQMNSLKPEDTAVYYCAADFWLKVWQDTDYDYDYWGQGTQVTVSS	low polyreactivity
QVQLVESGGGLVQAGGSLRLSCAASGRTFISNAMGWYRQAPGKERELVATINSGGSTNYADSVKGRFTISRDNAKNTVYLQMNSLKPEDTAVYYCARRVRYKHYDYWGQGTQVTVSS	high polyreactivity
QVQLVESGGGLFQAGGSLRLSCAASGIIFQRNDMGWYRQAPGKERELVANIRDGGITYADSVKGRFTISRDNAKNTVYLQMNSLKPEDTAVYYCARDDTSPGYCDQSSNAAYYYWGQGTQVTVSS	low polyreactivity
QVQLVESGGGIVQAGGSLRLSCDGSGSTFTYYAMGWYRQEPGKEWEFVAAISRRGGSTYYADSVKGRFTISRDNAKNTVYFQLNSLKPEDTAVSDCNVVIYSYGINGRYDYWGQGTQVTVSS	high polyreactivity
QVQLVESGGGLVQAGGSLRLSCAASGITFNRYALGWYRQAPGKERELVASIRWSGGSTNYADSVKGRFTISRDNGKNTVYLQMKSLKPEDTAVYYCNAGRESDDVYEGSQRIGQFDYWGQGTQVTVSS	low polyreactivity
QVQLVESGGGLVQAGGSLRLSCAASGSIFTPYAMGWYRQAPAKERELVAANTSSGGSTNYPDSVKGRFTISRDKAKSTVYLQMNSLKPEDTAVYYCAADQDLGYPLFDYWGQRTQVTVSS	low polyreactivity
QVQLVESGGGLVQAGGSLRLSCAASGSTFPTYAMGWSRQAPGKERELVAAIDWSDGSITYYADSVKGRFTISRDNAKNTVFLQLNSLKPEDTAVYYCAKDYSQYGWRYDYWGQGTQVTVSS	low polyreactivity
QVQLVESGGGLVHAGGSLRLSCAASVSIFASNAMGWYRQAPGKERELVAAITSSGRTKYADSVKGRFTISRDNAKNTVYLQMNSLNPEDTAVYYCAAVYYTYFGRYDYWGQGTQVTVSS	high polyreactivity
QVQLVESGGGLVQAGGSLRLSCAASGSTSVGNAMGWYRQAPGKERELVAAISRIGGTTYYADSVKGRFTISRDNAKNTVYLQMNSLKPEDTAVYYCNVLKRYWSGRVDYWGQGTQVTVSS	high polyreactivity
